Reference: the domain aggregation screens of Martell et al. (2025)

Experiment: soluble fraction after stress (log2 fold change); higher = more stays soluble; pooled small domains, quantitative proteomics
Details: stress: 50 degC
Method in brief: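 The measure of aggregation propensity here is the base-two logarithm of the fold change in the soluble amount of each protein after stress. A higher value means more of that protein stays in solution. Stress was applied at 50°C to pooled libraries of small protein domains, read out by high-throughput quantitative proteomics.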

HMDASFTYSLETHPAGVLVRVDGLEYETPFSILLPQGVHRLEVAGEERFFYLSETTHQFLEID
soluble fraction (log2): -0.901

HMNNLKTKELSKIGYTNDKARSLVISIIPKHFKYHSKSEIIELLTNIKNKPEDYVSDEILGKIAETFMEKI
soluble fraction (log2): -0.215

HMGEQVAVPDVTKKSVREVNNILTSAGLRLQIEGSGISVRQDPPADTMVAPDTVVTVSFEPP
soluble fraction (log2): 0.168

HMNNQIFGLKFRQLRKQQHITLAKAAAGITSRQSLGNWETGKGELAFEKVLLLLKKINVQPIDFLESSIS
soluble fraction (log2): -3.67

HMQIKEVDYGTFISMTEDGEIGRVEIQQQENTILFTDEDETAVYKTAMVEDDQLTQRLYDAGISFYGEE
soluble fraction (log2): -0.0136

HMSERVVVPDLTGKDLVAAQSELREISLAGREEGPGDKVRRQFPVAGVKVPKDTVVILYTED
soluble fraction (log2): 0.125

HMKRANGTGSVFKLNGKRRNPWVARVTQGFDDKGRQKYVNLGYYKTKREAENELLSYNSNPYDAN
soluble fraction (log2): 0.214

HMKDYKTIFQELIQKKHKTSPIYKSYEYNDMFKAEVYVNDKSFADGIGKSKKEAETDAAKKALEKIEMA
soluble fraction (log2): 0.0966

HMTPYEVLVYESLKQKILSGGYAAGEKIPEQSVSEELGVSRSPLRSAIRRLASEGLIEYYPYRGAFVKA
soluble fraction (log2): -0.347

HMSKQKRIKYFLSILNIKSIKQFRKKDLDYFYQKRFIEIQKSSKDKKLVSNQLIELNAAKEYLDEIDFEN
soluble fraction (log2): -1.93

HMADQVLVMTRAVGQGDIVRNADIGLTSVAVDRAVATIPASQLDKIVGRHALVDLSPGQLLGSHSVGE
soluble fraction (log2): 0.035

HMDGIDALEPLMRRVFEALPQRRSMTIERAAVAAGLDEESVKIALVRLQLEGYVANDERGWHRSKSPH
soluble fraction (log2): -0.911

HMGHEISLNNSRFLKLLNKTKISISNDDTRHYLNGIFLHLTEAHGRQFLTGVATDSHRLSSSSLEID
soluble fraction (log2): -0.0045

HMAEQLGNSRTANMVMLGAMIERTGVISIDSAMEALKATFGPKKEHLLPINRQAMEAGAAAARAV
soluble fraction (log2): 0.303

HMAFDGIVLKNITNALKELINGKINKIQQSSKDNLTLSIYNQKSYNLYIDISANNYRVNLTTHSE
soluble fraction (log2): 0.103

HMAESTRSRILNAAIEMMETGGESSVRLSAIAEALGIKEPSIYHHFTNRTELVNAAYIEWYW
soluble fraction (log2): -0.0152

HMIRILIVDDSAFMRKLLSDVFEEDKNFVVVDTARNGQDAVEKVKRLKPDLVTMDVEMPVMDGLTAVEIIM
soluble fraction (log2): -0.36

HMIDAKTTLQELTQKSGKKPEYRLIKIEGPDHLRRFTVEVFIDGQSMGTGTGHSKKEAEQNAANFALKNLQ
soluble fraction (log2): 0.0235

HMSKPVYILINKPKGFLASSTDKKVKKSVNDLINISNLNKIYPFDNMGRTSSGLLLLSNDLYFKKHFKDKI
soluble fraction (log2): 0.341

HMTVAQEIEARRATIRSSDPAEMARFIRWLIMEGHTEPAADELKKYAENFPEASATTKQLQALLAAR
soluble fraction (log2): -0.177

HMTLGEHILQYRTARGWSQEDLANALEVSRQSVSKWETDASTPELDKIVRLSEIFQVSIDELVTGKA
soluble fraction (log2): 0.108

HMKARLRRVFQIYYGDAYSIMKALKETFPLQTIVHEPRTNSIVVDTPDEETATKIGDVVSAL
soluble fraction (log2): -0.392

HMGKTIIQLATDYLIKNMQPKSLHDIESYVLTRKKIKKSSIGAILLSKPNIFGRTEDGLFGLRIWNNFQYT
soluble fraction (log2): -0.738

HMESIEGMYKISLLRKQGNAYVIFEDENKEAVEHIFPEKPTALELGTKVIEMFEYKERYDGLI
soluble fraction (log2): -0.366

HMKIPIIYQPLKNAKRIKIYIPYELKELRTIFKKINTTFWHPNQKLWSIIYTQENVALIKNLFGKNYKIVN
soluble fraction (log2): -0.547

HMIDIIEYIISEESKGLRADQGIALQNPQYSRSLIQKWIKKGSVLVNNKIIRTKEILLEGDKISITPEENI
soluble fraction (log2): -0.384

HMSFMPDPSIHDAITYTVRSGDYLGKISTTFGVKVSDLQKWNSIKSNIIYPGQKLTVWVSSNKRESLQ
soluble fraction (log2): -1.31

HMSTKYSSNIISLVKGLMEEDQYKDLMGPPLKKEIIKKVESITDTFPYKFDKDDKEFIVKKVLISLRK
soluble fraction (log2): -1.29

HMVIDETVLIDLFERLAEDDRPQRVAFRYILALVLLRKRTLQLIGREDEDDGEIWLLRFKGTDGEPIRV
soluble fraction (log2): -0.297

HMHPEPDPVLFIDGKEYPYDKLSELDETRVQSMTILPKKSAVKKYGDKYANRSIMEITLKKEN
soluble fraction (log2): 0.0957

HMRNISLSLRWHSGEWTADRLKSEVLALPGAMDMTVFEPQSQAYLRVEQGFDTKLLPAGIDVH
soluble fraction (log2): -0.927

HMTSFDVMLKSAGANKLAVVKLVKELTGLGLKEAKDIVDAAPSKVKEGVSKEEAEELQKQLTGAGAEVEL
soluble fraction (log2): 0.0299

HMGDLTVPDLSGLTVDQAKQRLKDMGLVLGKITTQEDSSKPDGVIISQSPSADGKINKGQLVDVVVNKLS
soluble fraction (log2): 0.0463

HMKKNLELGLLPHEVKSILGEPDFIDTITDIDGIRYDMWSYTKLNVTKRLYFEDLFLVRMEE
soluble fraction (log2): -1.43

HMIHMNMGQKINQLRLQKGFTLEELGNLVGVGKSTVRKWENGMIANMKRDKILLVAEALDTSPAYLMGWD
soluble fraction (log2): -1.54

HMSENMSQDLAQWYRLQQALHPNLDAPELWATDLTSQQRTVRDQLIQQWAQEKRDSLWSEISGD
soluble fraction (log2): 0.0433

HMGGREEAGTDIARLLGYINDIHGEELIAKLEYYQKMLGSENFAVLMSRLPDGQKKELREQNLYSEYV
soluble fraction (log2): -0.145

HMTPDVAEFRERLRQILPGEQIEVRTANDGIVLSGTVSSIARLDAALQLAERYAPSRVSNLMSVG
soluble fraction (log2): 0.19

HMKEILTNESIIQFVKDKVSEEQIIYKINNSPIDFKLDVNSMVSLAKQNVSSTIIIAMENAMNN
soluble fraction (log2): -0.256

HMSDDIPVHYRLDVNDAARALKLLTDNGFSAETAESGLNVYMTRLQSAEAARLLVENNIAVYGLTAV
soluble fraction (log2): 0.0267

HMDSYSILGIEKESSMEDIEKAYIDKISKIKKEVKNEKNAAAFEAVLTKAYNDILSQKENISEEQELAE
soluble fraction (log2): 0.011

HMNEYLPEAVQKLLEVMEYDIPYTSNELMERLGLKAKEGFRRNYLHPAMEMKLIQMTIPDKPNSRNQRYLR
soluble fraction (log2): -2.11

HMPSEQGANKARDIIFRHHMKVDVWVGSWENARNYAEQAIKQGVKVIISRGGTAALLRHSLDTAIIKVR
soluble fraction (log2): 0.0222

HMFKMRVNGKEVIGMAITAKPQANPIDVADEIKKFVIDANTKLPSTMKLEVLYDATGIFRASISEVIS
soluble fraction (log2): -0.273

HMSYTPGQWVEASMPNATFFRIVPSGNATADKMLAVATPMKVISTSGTYVKVELDSGDVGFVPEIMV
soluble fraction (log2): -0.46

HMAQVSDTGAIAKIVADAIAANPKQVQQYLDGNEKVLMYLVGQVMKLSKGKANPPMVIQLLKEQLG
soluble fraction (log2): -0.0543

HMDTNTIIGLRIKALRTEKKYTLKYLSENSGLSIGFLSQLERGMTSVAIDSLDKISKVLDVELSSFFN
soluble fraction (log2): -2.93

HMSDIATLVPGPTDAELAASALRGLDAALDADTPVRLSLGEPGGEVEVPRSVLAALARVLDSFAHGEGVTL
soluble fraction (log2): -0.136

HMVSSEGLASGIERMLVEFGLETDKGRRFAMWSLLYMLGSAPDLDVAFKDPRDREAARTFMDLLDQANA
soluble fraction (log2): -0.69

HMSNIVNYEVYVYQNDAWDLLARYPSEKRAEAIEYAKSTEFSLNRPTKVIRETYDLDTQKFQEALIYLSE
soluble fraction (log2): -0.239

HMPPTSADGIEKYLASGMIRGVGPVYAKKLVSAFGDKVFDIIEAAPHQLQEVEGIGRVRAASILAAWAEQ
soluble fraction (log2): 0.134

HMVMTTVPEVLGMDISKAASLLTGKNLDYDYDLVESDKPKDQVIEQDVVKGTEVPEGTVIHLKVSKGPA
soluble fraction (log2): 0.228

HMIINKFERRKEIQIQFNNQERIKFKDFFLNLSKENIIVSFLILLELVRESLIDFSGTNENDIEFFIK
soluble fraction (log2): -2.3

HMWAVDFVLLDKDDQRIGNAVAYRDDRTKGMDEEVYRTVPEEELYASTGIQKQIFNSIYQLMAWKK
soluble fraction (log2): 0.0151

HMTETEIVIGGKYRHYKGGEYELVSIVKHSETLEELVIYKSLSTGEMWARPKSLFVGLVDGQPRYTL
soluble fraction (log2): -1.85

HMANHIAAIHVLKSKLQMSDSDYRVLITGLTQKASTKDMSDIERQRVRDHMQGLAERMGVVK
soluble fraction (log2): -0.18

HMIYMIDPNDEIAVKLDEIYQRYLNRTIDPEGLIFFYNQIRNAQMGYSDVEKRILESPEYVSIPK
soluble fraction (log2): -0.242

HMGVSLKEIQENLSLIDDAAQKLASGQGTVDDAVGMGNAGKDIYDNIEGYVSSPKEFINGVLSSV
soluble fraction (log2): -0.104

HMRKVVLEEKEANYYAEPNSESELLGVLKRGIHLTVTDVKKEAGSDGWVKLVHPDGQEGWISGRARIRV
soluble fraction (log2): -0.0551

HMSEHLTLVVSDEDAGHRVDQFLVSRLAHMTRSQIQKLIKDGQVTIDTKLVRASTTVHTDNIVTIEFPPAV
soluble fraction (log2): -0.505

HMDPSKLVEVQEPVSMKALSEGLGIKVTELIATFAFKLKIGGKNINSMLSNDEVELVALDLERNIKVV
soluble fraction (log2): 0.164

HMSAPEGWMNRGDLRDNFRIQYPVTDRIIASYRESHPEWFGTYLSKTSKSLEYFHPDLVAKVREAAN
soluble fraction (log2): -0.101

HMGKDIYLTSGWVEKFDELNEFSNSVDNYDRLNQFGMYENAIIGDTGVIKITDEMIFDLYEKIQVPVEAGP
soluble fraction (log2): -0.185

HMEKPYTPPANLNEIQSYEELSKAVQYYNKVKDAATTDADRLKAQQSIDTLEDMRKAWDAASST
soluble fraction (log2): 0.072

HMSNEKVVKFAQELLVDEERSAISPALISAKIDQVLMFKPAWNEGLDRDAVVNELVRRFSIW
soluble fraction (log2): -0.841

HMTTYTGVVTGSGVNVRSGAGTSYPVVGSKTMGDVVTITETVSADGMIWGKIDIGWISMNYVRM
soluble fraction (log2): -0.75

HMNEMEFAQRLRQFRKAKNLTQQELADRLGVSNKSVSRWESGSYPDVGTLVALARALGVTVDELLDPKA
soluble fraction (log2): 0.0532

HMPEMAIRTLRLRNQRGAAVAAEWSRITASLLELRQVEFVNPVDQLIVLKGPEPWAGVAEELVRQLDV
soluble fraction (log2): -0.849

HMSSETTVPAVVGIKEDKARQLASEQGLRLRVKSREESADVEEGIIISQDPNSNTKVKKGDEIEVVVS
soluble fraction (log2): 0.254

HMDSSNLSLIAGVGPTIEKKLRAAGITSWEQIAAWTEADVAKYDEELNLRGRITRDEWIEQAKELLAGKPP
soluble fraction (log2): -0.0993

HMATYNEVLKRLIEERKRLGLSQQEMARLVHITQSNYSKVEKGLHRLSYEELKYLSKANVDIFYILT
soluble fraction (log2): 0.136

HMIGGEDEILKVVLEVLEEKPEAIEQYKNGRTNIVDFLVGQVMKKTRGQANPATTREFMIREIEK
soluble fraction (log2): 0.0588

HMISKRFQVDEENSNNRVDIFLANNLDSISRGIVQQLILDGKVLVNGETVKRNHLLKTNDEVDISFEI
soluble fraction (log2): 0.298

HMESSNLESQLKKGIVPNLNGLSAKDALFLLENSGFNVKLYGMGSVKKQSLEAGKKYNKGDKITLIL
soluble fraction (log2): 0.112

HMKMSLKENLLELLQKSSGEFLSGERAAETLGVSRTAVWKAVTSLKNEGYNIESVTNRGYRFS
soluble fraction (log2): -0.0145
